Publication PMC6374115

Experiment: live-cell confocal, cytosolic distribution
Conditions: glycan lost; control: WT YFP-cryAB

B1: cryAB (crystallin alphaB / HspB5): T170A (protein)
parent chain: MDIAIHHPWIRRPFFPFHSPSRLFDQFFGEHLLESDLFPTSTSLSPFYLRPPSFLRAPSWFDTGLSEMRLEKDRFSVNLDVKHFSPEELKVKVLGDVIEVHGKHEERQDEHGFISREFHRKYRIPADVDPLTITSSLSSDGVLTVNGPRKQVSGPERTIPITREEKPAVTAAPKK
- localisation_or_trafficking: changes
